Experimental data published in the supplement of paper PMC12764529.
± gives the half width of the 95% confidence interval.

What was measured:
[1] = folding stability dG unfold from chymotrypsin proteolysis; higher = more stable
Outline: (§1)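 Bayesian fitting of sequencing counts gave K50 for each design. Unfolding free energy followed by setting this against a sequence-predicted unfolded-state K50 and a shared folded-state K50, either per protease or with trypsin and chymotrypsin combined. The designs, under 80 residues and lacking cysteine, were digested in a PA-tagged cDNA display format at 11 threefold-diluted protease concentrations and without protease, and only those with AlphaFold2 dimer inter-PAE above 15 were kept.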

[2] = folding stability dG unfold from trypsin proteolysis; higher = more stable
Outline: as §1

[3] = folding stability dG unfold (combined trypsin and chymotrypsin); higher = more stable
Outline: as §1

Q: Which “folding stability dG unfold” value [1] does the source give for “SAGGMSEEVRKLAEELAKKLNIEKVEVLPDGTVRITLKNGKKIEIKVEKVEVKEVKVEVEVEEVEEESAGGS [r16_296_TrROS_Hall]” here?
A: 4.11 ± 0.28 kcal/mol

Q: What about the “folding stability dG unfold” value [2] of the same sequence?
A: 2.55 ± 0.27 kcal/mol

Q: And the “folding stability dG unfold” value [3]?
A: 3.62 ± 0.49 kcal/mol

Q: What does the source list for “SAGGAVEVKEIKILPPVLDPEGDPSNPLLRVEITTKITENTPEGKKILEKTKTYLVSPENLEEVLKKLSAGG [r13_149_JUSTAS]”?
A: folding stability dG unfold [1]: 1.98 ± 0.07 kcal/mol; folding stability dG unfold [2]: 2.05 ± 0.065 kcal/mol; folding stability dG unfold [3]: 2.18 ± 0.13 kcal/mol

Q: With “SAGGSAGGSAGGSAPPKVEIEVTVLVKDEDGRLYVFKAKATFDLETNELTVEVEVYELPSAGGSAGGSAGGS [r4_445_TrROS_Hall]” as the sequence, how does the “folding stability dG unfold” value [1] read?
A: 4.79 ± 0.13 kcal/mol

Q: And the “folding stability dG unfold” value [2]?
A: 3.22 ± 0.39 kcal/mol

Q: And the “folding stability dG unfold” value [3]?
A: 4.66 ± 0.35 kcal/mol

Q: Which results are given for “SDDIKNMPFRITEIEPLPPGDPIPPGQRIRITIQMPDFPGQPFEFDIRVDPENGMIYMEMGGMPFEIPIKSA [r9_243_TrROS]”?
A: folding stability dG unfold [1]: 1.6 ± 0.13 kcal/mol; folding stability dG unfold [2]: 1.6 ± 0.019 kcal/mol; folding stability dG unfold [3]: 1.67 ± 0.15 kcal/mol

Q: Which “folding stability dG unfold” value [1] does the source give for “SAGGSAGGSAGGDDDWRIMINIEIWPYPNYVRIRFPIMIIPPDGKLIGSVEVTFWIPANDSAGGSAGGSAGG [r7_812_TrROS]” here?
A: 3.84 ± 0.37 kcal/mol

Q: And the “folding stability dG unfold” value [2]?
A: 3.2 ± 0.18 kcal/mol

Q: And the “folding stability dG unfold” value [3]?
A: 3.7 ± 0.38 kcal/mol

Q: Which results are given for “SAGGSAGGSAGGKKPKVKVIKLTLTVTKLTEKDGKLTLEKKTITLTAVIDPETGKIHLLSAGGSAGGSAGGS [r10_533_TrROS_Hall]”?
A: folding stability dG unfold [1]: 3.5 ± 0.089 kcal/mol; folding stability dG unfold [2]: 3.2 ± 0.14 kcal/mol; folding stability dG unfold [3]: 3.5 ± 0.16 kcal/mol

Q: Which “folding stability dG unfold” value [1] does the source give for “SAGGEFRITFMVPADPNDPAVELAKWIADEFMPPGWKVEVDIKVVPSPDGYYMIDIPVEIMPPGQPISAGGS [r16_128_TrROS]” here?
A: 2.81 ± 0.047 kcal/mol

Q: What about the “folding stability dG unfold” value [2] of the same sequence?
A: 1.71 ± 0.14 kcal/mol

Q: What about the “folding stability dG unfold” value [3] of the same sequence?
A: 2.49 ± 0.18 kcal/mol

Q: With “SKKPDQPPKTVPIEIWVPLPPGQTPEWREMAEEFAEIFADELQQEGFKNVTVEVEPNKDGWVHIDAEVQVSA [r9_865_TrROS]” as the sequence, how does the “folding stability dG unfold” value [1] read?
A: -0.283 ± 0.21 kcal/mol

Q: And the “folding stability dG unfold” value [2]?
A: 0.821 ± 0.15 kcal/mol

Q: And the “folding stability dG unfold” value [3]?
A: 0.322 ± 0.26 kcal/mol

Q: With “SAGGSAGGSAGMPLYIIEVEKEDGSKITITIPENMTEEEIKKIAEELGIKKVEIIKKEDLSAGGSAGGSAGG [r11_490_TrROS_Hall]” as the sequence, how does the “folding stability dG unfold” value [1] read?
A: 1.8 ± 0.053 kcal/mol

Q: And the “folding stability dG unfold” value [2]?
A: 1.91 ± 0.061 kcal/mol

Q: And the “folding stability dG unfold” value [3]?
A: 1.84 ± 0.087 kcal/mol

Q: What does the source list for “SAGGMPEPRPIPLTLTLLVDPEDPESVEEKLREFFEAFGADEITRVERELLPDGRALVTAEVLVNEPVSAGG [r13_222_TrMRF]”?
A: folding stability dG unfold [1]: 1.17 ± 0.043 kcal/mol; folding stability dG unfold [2]: 1.03 ± 0.03 kcal/mol; folding stability dG unfold [3]: 1.15 ± 0.061 kcal/mol

Q: Which “folding stability dG unfold” value [1] does the source give for “SAGGSAGGSAGGGSMPVTERIPGSPSSVTTTTFPDGTVTTETTAGPPVTLSPAGGSTLVSAGGSAGGSAGGS [r10_664_JUSTAS]” here?
A: 1.09 ± 0.058 kcal/mol

Q: And the “folding stability dG unfold” value [2]?
A: 0.97 ± 0.073 kcal/mol

Q: And the “folding stability dG unfold” value [3]?
A: 1.08 ± 0.11 kcal/mol

Q: Which “folding stability dG unfold” value [1] does the source give for “SAGGSAPPNLQIDIQINPGHGYIEVSVQIPGRHVKASAKLTEPGQLKMDIEFPGNGKEIDITIPISSAGGSA [r15_837_TrROS]” here?
A: 2.61 ± 0.072 kcal/mol

Q: And the “folding stability dG unfold” value [2]?
A: 2.04 ± 0.14 kcal/mol

Q: And the “folding stability dG unfold” value [3]?
A: 2.37 ± 0.15 kcal/mol

Q: For “SAGGSAGGSPVFESPEQAKAFLDNVPADSTVLIAVKNPETGEWQLFVVKVPPKRPVGYPGDKDSAGGSAGGS [r12_393_TrMRF]”, which “folding stability dG unfold” value [1] is on record?
A: 1.79 ± 0.072 kcal/mol

Q: And the “folding stability dG unfold” value [2]?
A: 1.08 ± 0.065 kcal/mol

Q: What about the “folding stability dG unfold” value [3] of the same sequence?
A: 1.56 ± 0.085 kcal/mol

Q: Which results are given for “SAGGSMTFKAEVTPLDTFPLFDANGKPVAEVKVYTATIEFPDGSRVEIRGVEVGDELYILEIRPLDSAGGSA [r2_158_TrMRF]”?
A: folding stability dG unfold [1]: 2.32 ± 0.13 kcal/mol; folding stability dG unfold [2]: 1.54 ± 0.084 kcal/mol; folding stability dG unfold [3]: 2.16 ± 0.13 kcal/mol

Q: Which “folding stability dG unfold” value [1] does the source give for “SAPDPEQRKKNREQQEKNERMIPIQIHVYDKDGKWKPIGPVWFKDPDVPIDDLVPTFHDEGFDYVSISISAG [r14_318_TrROS]” here?
A: 0.209 ± 0.23 kcal/mol

Q: And the “folding stability dG unfold” value [2]?
A: 0.153 ± 0.15 kcal/mol

Q: What about the “folding stability dG unfold” value [3] of the same sequence?
A: 0.299 ± 0.21 kcal/mol

Q: What does the source list for “MPDISRAEIKALAEKLGLPVPDGTITIKFTYGDKTITVPVDAKKDITLGDIVEAIKKKNPNIKKIEIVAEPS [r1_135_TrMRF]”?
A: folding stability dG unfold [1]: 0.808 ± 0.08 kcal/mol; folding stability dG unfold [2]: 0.956 ± 0.044 kcal/mol; folding stability dG unfold [3]: 0.907 ± 0.077 kcal/mol

Q: Which “folding stability dG unfold” value [1] does the source give for “SAGGSAGGSAGGSKKKKIIIVVPKEELSEEQIKALKDLGYEIEIVEVEKKPVKVKKKKKSAGGSAGGSAGGS [r4_294_TrROS_Hall]” here?
A: 2.08 ± 0.12 kcal/mol

Q: And the “folding stability dG unfold” value [2]?
A: 0.62 ± 0.068 kcal/mol

Q: What about the “folding stability dG unfold” value [3] of the same sequence?
A: 1.53 ± 0.22 kcal/mol

Q: With “SAGGSPERSAEELAEELAERIRELLREEAASFELPLHVHIVVPDPEGRRREFDVEVHVRVEVPEDARSAGGS [r16_550_TrMRF]” as the sequence, how does the “folding stability dG unfold” value [1] read?
A: 1.14 ± 0.034 kcal/mol

Q: What about the “folding stability dG unfold” value [2] of the same sequence?
A: 0.898 ± 0.025 kcal/mol

Q: And the “folding stability dG unfold” value [3]?
A: 1.05 ± 0.054 kcal/mol

Q: Which “folding stability dG unfold” value [1] does the source give for “SAGGSAGGSAGMTKIVIQYEVPPDKPPPDLEEIKKSLPGAENIEITREELPNGTWVYTVESAGGSAGGSAGG [r17_205_JUSTAS]” here?
A: 0.405 ± 0.3 kcal/mol

Q: And the “folding stability dG unfold” value [2]?
A: 0.694 ± 0.19 kcal/mol

Q: And the “folding stability dG unfold” value [3]?
A: 0.593 ± 0.26 kcal/mol

Q: Which “folding stability dG unfold” value [1] does the source give for “SAMLPEGERKPFLVKVKIETPEGTPEFEAPVITEPPQKIHVSIDFDIPEGEHKIKIEFFGPKLEFEFDISAG [r14_280_TrMRF]” here?
A: 2.42 ± 0.12 kcal/mol

Q: And the “folding stability dG unfold” value [2]?
A: 1.87 ± 0.11 kcal/mol

Q: What about the “folding stability dG unfold” value [3] of the same sequence?
A: 2.29 ± 0.44 kcal/mol

Q: Which “folding stability dG unfold” value [1] does the source give for “SAGGSALTLNDKSLIPKPFPKKKAIVDVAVPLPPNLTLEEALEVAEAIANNLLKAGKIDEATVAIYSAGGSA [r15_450_TrMRF]” here?
A: 0.151 ± 0.15 kcal/mol

Q: What about the “folding stability dG unfold” value [2] of the same sequence?
A: -0.0583 ± 0.11 kcal/mol

Q: And the “folding stability dG unfold” value [3]?
A: 0.108 ± 0.091 kcal/mol
